From paper PMC3664939, “Structure of the Catalytic Region of DNA Ligase IV in Complex with an Artemis Fragment Sheds Light on Double-Strand Break Repair” (Structure(London, England:1993), 2013)

Target: T1, DNA ligase IV catalytic region (residues 1–609) (human, UniProt P49917 1-609)
T1 construct: Cloned in pOPINS; whether the His6-Sumo tag was removed is told only in the Supplemental Experimental Procedures; the derivative crystals carry nine mercury atoms from thiomersal; the methods point to the recombinant construct for the crystals; also called catalytic region of LigIV
T1 sequence (looked up): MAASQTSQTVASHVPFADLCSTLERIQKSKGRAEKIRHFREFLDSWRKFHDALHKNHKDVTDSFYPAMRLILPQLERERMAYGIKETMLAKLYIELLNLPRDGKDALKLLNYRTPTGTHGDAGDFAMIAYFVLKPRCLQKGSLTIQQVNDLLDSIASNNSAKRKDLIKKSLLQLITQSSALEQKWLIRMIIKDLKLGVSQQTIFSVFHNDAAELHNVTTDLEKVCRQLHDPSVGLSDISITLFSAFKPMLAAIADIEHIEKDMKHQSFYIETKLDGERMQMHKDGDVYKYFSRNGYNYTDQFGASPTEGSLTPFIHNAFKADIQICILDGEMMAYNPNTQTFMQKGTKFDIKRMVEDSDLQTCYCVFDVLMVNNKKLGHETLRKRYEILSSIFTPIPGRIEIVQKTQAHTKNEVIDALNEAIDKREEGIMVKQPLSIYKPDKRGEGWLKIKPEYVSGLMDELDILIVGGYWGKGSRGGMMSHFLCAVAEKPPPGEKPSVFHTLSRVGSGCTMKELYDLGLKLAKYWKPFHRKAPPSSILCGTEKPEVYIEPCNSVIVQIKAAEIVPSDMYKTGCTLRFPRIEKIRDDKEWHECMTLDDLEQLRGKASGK
Assay: crystal structure; vapor diffusion, 100 mM MES (pH 5.6–5.7), 2.0 M (NH4)2SO4, 10 mM YCl3; native crystals and crystals soaked in 1 mM thiomersal
Conditions: both partners purified

binding result: binds
B1: Artemis peptide (residues 485–495) (peptide, UniProt Q96SD1 485-495, looked up)
peptide: DVPQWEVFFKR
notes: holds P487, W489, F492 and F493; also called Artemis fragment; source: synthetic peptide (PNAC facility, Department of Biochemistry, University of Cambridge)
